According to US20190241648A1 (STATEN BIOTECHNOLOGY B V, published 2019):
Ends that are not written are not given here.

Assays:
Experiment in all cases: cyclic peptide substitution array
ApoC3 peptide K60W = biological target: T1, ApoC3 peptide K60W (human, cyclic (thioether))
T1 peptide: DWFSEFWDLDPEV
Source text: (§1) S62 and D68 of mature huApoC3 were also highly conserved; substitution of S62 by A or V, and substitution of D68 by E or P, caused decrease of spot intensities by ˜60% or higher. […] Amino acid F64 was completely variable.
(§2) Pre: staining of one of the ApoC3 peptide microarrays was done with the secondary antibody goat anti-human IgG (Fe) DyLight680 (1:5000) and control antibody mouse monoclonal anti-HA (12CA5) DyLight800 (1:2000) to investigate background interactions of the secondary antibody with the antigen-derived peptides that could interfere with the main assays. Subsequent incubation of other ApoC3 peptide microarrays with antibody samples was followed by staining with secondary and control antibodies as well as read-out at scanning intensities of 7/7 (red/green). The additional HA peptides framing the peptide arrays were stained as internal quality control to confirm the assay quality and the peptide microarray integrity.

ApoC3 peptide V71G = biological target: T2, ApoC3 peptide V71G (human, thioether (positions not given here); also: cyclic (thioether), ring places not given here)
T2 peptide: DKFSEFWDLDPEG
Source text: as §1, §2

ApoC3 peptide D59A = biological target: T3, ApoC3 peptide D59A (human, thioether (positions not given here); not fully specified (C-terminus, bridges))
T3 peptide: AKFSEFWDLDPEV
Source text: as §1, §2

ApoC3 peptide F64Y = biological target: T4, ApoC3 peptide F64Y (human, thioether (positions not given here); not fully specified (bridges); also: cyclic (thioether), positions not given here)
T4 peptide: DKFSEYWDLDPEV
Source text: as §1, §2

ApoC3 peptide K60F = biological target: T5, ApoC3 peptide K60F (human, cyclic (thioether))
T5 peptide: DFFSEFWDLDPEV
Source text: as §1, §2

ApoC3 peptide E70M = biological target: T6, ApoC3 peptide E70M (human, cyclic (thioether))
T6 peptide: DKFSEFWDLDPMV
Source text: as §1, §2

ApoC3 peptide F61C = biological target: T7, ApoC3 peptide F61C (human, cyclic (thioether))
T7 peptide: DKCSEFWDLDPEV
Source text: as §1, §2

ApoC3 peptide D59W = biological target: T8, ApoC3 peptide D59W (human, thioether (positions not given here); not fully specified (C-terminus, bridges); also: cyclised via thioether between a C-terminal Cys and a modified N-terminus, the Cys and the N-terminal …)
T8 peptide: WKFSEFWDLDPEV
Source text: as §1, §2

ApoC3 peptide V71M = biological target: T9, ApoC3 peptide V71M (human, thioether (positions not given here); also: cyclic (thioether), ring places not given here)
T9 peptide: DKFSEFWDLDPEM
Source text: as §1, §2

ApoC3 peptide V71C = biological target: T10, ApoC3 peptide V71C (human, thioether (positions not given here); also: cyclic (thioether), ring places not given here)
T10 peptide: DKFSEFWDLDPEC
Source text: as §1, §2

ApoC3 peptide K60G = biological target: T11, ApoC3 peptide K60G (human, cyclic (thioether))
T11 peptide: DGFSEFWDLDPEV
Source text: as §1, §2

ApoC3 peptide E70W = biological target: T12, ApoC3 peptide E70W (human, cyclic (thioether))
T12 peptide: DKFSEFWDLDPWV
Source text: as §1, §2

ApoC3 peptide L67H = biological target: T13, ApoC3 peptide L67H (human, thioether (positions not given here); not fully specified (bridges); also: thioether between a C-terminal Cys side chain and a modified N-terminus, the Cys is not in the chain)
T13 peptide: DKFSEFWDHDPEV
Source text: as §1, §2

ApoC3 peptide D68R = biological target: T14, ApoC3 peptide D68R (human, cyclic (thioether))
T14 peptide: DKFSEFWDLRPEV
Source text: as §1, §2

ApoC3 peptide E70S = biological target: T15, ApoC3 peptide E70S (human, cyclic (thioether))
T15 peptide: DKFSEFWDLDPSV
Source text: as §1, §2

ApoC3 peptide V71P = biological target: T16, ApoC3 peptide V71P (human, not fully specified; cyclic (thioether))
T16 peptide: DKFSEFWDLDPEP
Source text: as §1, §2

ApoC3 peptide L67F = biological target: T17, ApoC3 peptide L67F (human, thioether (positions not given here); not fully specified (bridges); also: thioether between a C-terminal Cys side chain and a modified N-terminus, the Cys is not in the chain)
T17 peptide: DKFSEFWDFDPEV
Source text: as §1, §2

ApoC3 peptide K60I = biological target: T18, ApoC3 peptide K60I (human, cyclic (thioether))
T18 peptide: DIFSEFWDLDPEV
Source text: as §1, §2

ApoC3 peptide D59Q = biological target: T19, ApoC3 peptide D59Q (human, thioether (positions not given here); not fully specified (C-terminus, bridges); also: cyclised via thioether between a C-terminal Cys and a modified N-terminus, the Cys and the N-terminal …)
T19 peptide: QKFSEFWDLDPEV
Source text: as §1, §2

ApoC3 peptide K60T = biological target: T20, ApoC3 peptide K60T (human, cyclic (thioether))
T20 peptide: DTFSEFWDLDPEV
Source text: as §1, §2

ApoC3 peptide K60S = biological target: T21, ApoC3 peptide K60S (human, cyclic (thioether))
T21 peptide: DSFSEFWDLDPEV
Source text: as §1, §2

ApoC3 peptide W65E = biological target: T22, ApoC3 peptide W65E (human, not fully specified; cyclic (thioether))
T22 peptide: DKFSEFEDLDPEV
Source text: as §1, §2

ApoC3 peptide L67S = biological target: T23, ApoC3 peptide L67S (human, thioether (positions not given here); not fully specified (bridges); also: thioether between a C-terminal Cys side chain and a modified N-terminus, the Cys is not in the chain)
T23 peptide: DKFSEFWDSDPEV
Source text: as §1, §2

ApoC3 peptide S62W = biological target: T24, ApoC3 peptide S62W (human, thioether (positions not given here); also: cyclic (thioether), ring places not given here)
T24 peptide: DKFWEFWDLDPEV
Source text: as §1, §2

ApoC3 peptide E63Q = biological target: T25, ApoC3 peptide E63Q (human, cyclic (thioether))
T25 peptide: DKFSQFWDLDPEV
Source text: as §1, §2

ApoC3 peptide F61W = biological target: T26, ApoC3 peptide F61W (human, cyclic (thioether))
T26 peptide: DKWSEFWDLDPEV
Source text: as §1, §2

ApoC3 peptide V71H = biological target: T27, ApoC3 peptide V71H (human, thioether (positions not given here); also: cyclic (thioether), ring places not given here)
T27 peptide: DKFSEFWDLDPEH
Source text: as §1, §2

ApoC3 peptide S62C = biological target: T28, ApoC3 peptide S62C (human, not fully specified; cyclic (thioether))
T28 peptide: DKFCEFWDLDPEV
Source text: as §1, §2

ApoC3 peptide E63C = biological target: T29, ApoC3 peptide E63C (human, not fully specified; cyclic (thioether))
T29 peptide: DKFSCFWDLDPEV
Source text: as §1, §2

B1: Llama antibody 5E5 (antibody, V domains shown)
VH: QLQLVESGGGLVQPGGSLRLSCAASGFTFGTYSMRWVRQVPRKALEWVSSISTDGGGTAYRDSVKGRFTISRDNAKNTLYLQMNNLKPEDTAIYYCVIAGYSDWGQGTQVTVSS
VL: ATMLTQSPGSLSVVPGESASISCKTSQGLVHSDGKTYFYWFLQKPGQSPQQLIYQVSNRASGVPDRFTGSGSGTDFTLKISGVKAEDAGVYYCAQGTYYPHTFGSGTRLEIK
notes: detected with goat anti-human IgG (Fc); also called mAb 5E5
- % of binding to wild-type peptide (ApoC3 peptide K60W): 41.9%
- % of binding to wild-type peptide (ApoC3 peptide V71G): 91.9%
- % of binding to wild-type peptide (ApoC3 peptide D59A): 44.4%
- % of binding to wild-type peptide (ApoC3 peptide F64Y): 118%
- % of binding to wild-type peptide (ApoC3 peptide K60F): 53.2%
- % of binding to wild-type peptide (ApoC3 peptide E70M): 74%
- % of binding to wild-type peptide (ApoC3 peptide F61C): 0.51%
- % of binding to wild-type peptide (ApoC3 peptide D59W): 56.8%
- % of binding to wild-type peptide (ApoC3 peptide V71M): 138%
- % of binding to wild-type peptide (ApoC3 peptide V71C): 56.9%
- % of binding to wild-type peptide (ApoC3 peptide K60G): 143%
- % of binding to wild-type peptide (ApoC3 peptide E70W): 35.4%
- % of binding to wild-type peptide (ApoC3 peptide L67H): 3.58%
- % of binding to wild-type peptide (ApoC3 peptide D68R): 0%
- % of binding to wild-type peptide (ApoC3 peptide E70S): 55.2%
- % of binding to wild-type peptide (ApoC3 peptide V71P): 173%
- % of binding to wild-type peptide (ApoC3 peptide L67F): 0.37%
- % of binding to wild-type peptide (ApoC3 peptide K60I): 106%
- % of binding to wild-type peptide (ApoC3 peptide D59Q): 68.3%
- % of binding to wild-type peptide (ApoC3 peptide K60T): 177%
- % of binding to wild-type peptide (ApoC3 peptide K60S): 174%
- % of binding to wild-type peptide (ApoC3 peptide W65E): 0%
- % of binding to wild-type peptide (ApoC3 peptide L67S): 36.5%
- % of binding to wild-type peptide (ApoC3 peptide S62W): 0%
- % of binding to wild-type peptide (ApoC3 peptide E63Q): 32.4%
- % of binding to wild-type peptide (ApoC3 peptide F61W): 15.7%
- % of binding to wild-type peptide (ApoC3 peptide V71H): 72.8%
- % of binding to wild-type peptide (ApoC3 peptide S62C): 0%
- % of binding to wild-type peptide (ApoC3 peptide E63C): 2.3%
